# Starred links: 1 amine or outer side, 2 acyl side, 3 side chain; linkers in the order of their positions; H or OH if unused. Non-standard residues stand in square brackets, D forms with d. Bip4CONMe2 = (2S)-2-amino-3-[4-[4-(dimethylcarbamoyl)phenyl]phenyl]propanoic acid, CN(C)C(=O)c1ccc(-c2ccc(C[C@H](N[*:1])C(=O)[*:2])cc2)cc1; TyrEtNAc = (2S)-3-[4-(2-acetamidoethoxy)phenyl]-2-amino-propanoic acid, CC(=O)NCCOc1ccc(C[C@H](N[*:1])C(=O)[*:2])cc1; 4PyrimAla = (2S)-2-amino-3-pyrimidin-4-yl-propanoic acid, O=C([C@H](Cc1ccncn1)N[*:1])[*:2]; Phe(4-(5-CO2H-2-pyrimidyl)) = N[C@@H](Cc1ccc(-c2ncc(C(=O)O)cn2)cc1)C(=O)O; Phe(4-(4-Ac-piperazinyl)) = CC(=O)N1CCN(c2ccc(C[C@H](N)C(=O)O)cc2)CC1; Trp(4-Cl)(βS-Me) = C[C@@H](c1c[nH]c2cccc(Cl)c12)[C@H](N)C(=O)O; dPro(4R-(4-pyridylmethyl)) = O=C(O)[C@H]1C[C@@H](Cc2ccncc2)CN1; Trp(βS-Me,4-F) = C[C@@H](c1c[nH]c2cccc(F)c12)[C@H](N)C(=O)O; Bip(4'-CONH2) = NC(=O)c1ccc(-c2ccc(C[C@H](N)C(=O)O)cc2)cc1; Bip(4'-COOH) = N[C@@H](Cc1ccc(-c2ccc(C(=O)O)cc2)cc1)C(=O)O; Ala(1-bicyclo(1.1.1)pentyl) = N[C@@H](CC12CC(C1)C2)C(=O)O; dPro(4R-Bzl(4-F)) = O=C(O)[C@H]1C[C@@H](Cc2ccc(F)cc2)CN1; dPro(3S-(4-F-Bn)) = O=C(O)[C@@H]1NCC[C@@H]1Cc1ccc(F)cc1; Phe(2-Cl,4-COOH) = N[C@@H](Cc1ccc(C(=O)O)cc1Cl)C(=O)O; Bip(4'-Cl) = N[C@@H](Cc1ccc(-c2ccc(Cl)cc2)cc1)C(=O)O; 1Nal(3S-Me) = C[C@@H](c1cccc2ccccc12)[C@H](N)C(=O)O; Ala(pyrimidin-5-yl) = N[C@@H](Cc1cncnc1)C(=O)O; Phe(4-COOH) = N[C@@H](Cc1ccc(C(=O)O)cc1)C(=O)O; Bip = N[C@@H](Cc1ccc(-c2ccccc2)cc1)C(=O)O; Pro(cis-4-F) = O=C(O)[C@@H]1C[C@H](F)CN1; Ala(4-THP) = N[C@@H](CC1CCOCC1)C(=O)O; d(αMeD) = C[C@@](N)(CC(=O)O)C(=O)O; 4Pal = N[C@@H](Cc1ccncc1)C(=O)O; aThr = C[C@H](O)[C@H](N)C(=O)O; d(αMeS) = C[C@@](N)(CO)C(=O)O; Cba = N[C@@H](CC1CCC1)C(=O)O; Dab = NCC[C@H](N)C(=O)O; Aib = CC(C)(N)C(=O)O; Sar = CNCC(=O)O
# Target: Recombinant human IL-1β (BioLegend 579404) (human, UniProt P01584 117-269)
# Assay: cell-based or functional assay
row,MRC5 IC50,Binder
1,0.014 nM,"cyclo([Bip(4'-COOH)][4Pal][Phe(2-Cl,4-COOH)]G[Pro(cis-4-F)][1Nal(3S-Me)][Aib]SW[d(αMeD)][aThr]Q[Dab]G[dPro(4R-(4-pyridylmethyl))]) (ring closure inferred) [SEQ ID NO 354]"
2,0.01 nM,"cyclo([Bip(4'-COOH)][4Pal][Phe(4-COOH)]G[Pro(cis-4-F)][Trp(βS-Me,4-F)][Aib]EW[Aib][Ala(pyrimidin-5-yl)]Q[Dab]G[dPro(3S-(4-F-Bn))]) (ring closure inferred) [SEQ ID NO 346]"
3,0.022 nM,"cyclo([Bip(4'-Cl)][4Pal][Phe(4-COOH)]G[Pro(cis-4-F)][Trp(βS-Me,4-F)][Aib]SW[d(αMeD)][Ala(pyrimidin-5-yl)]Q[Dab]G[dPro(4R-(4-pyridylmethyl))]) (ring closure inferred) [SEQ ID NO 344]"
4,0.02 nM,"cyclo([Phe(4-(4-Ac-piperazinyl))][4Pal][Phe(4-COOH)]G[Pro(cis-4-F)][Trp(βS-Me,4-F)][Aib]SW[d(αMeS)][Ala(pyrimidin-5-yl)]Q[Dab]G[dPro(4R-(4-pyridylmethyl))]) (ring closure inferred) [SEQ ID NO 350]"
5,0.017 nM,"cyclo([Bip(4'-COOH)][4Pal][Phe(4-COOH)]G[Pro(cis-4-F)][Trp(βS-Me,4-F)][Aib][aThr]W[d(αMeD)][Ala(4-THP)]Q[Dab]G[dPro(4R-(4-pyridylmethyl))]) (ring closure inferred) [SEQ ID NO 353]"
6,0.018 nM,"cyclo([Bip(4'-COOH)][Ala(1-bicyclo(1.1.1)pentyl)][Phe(4-COOH)]G[Pro(cis-4-F)][Trp(βS-Me,4-F)][Aib]SW[d(αMeD)][Cba]Q[Dab]G[dPro(4R-(4-pyridylmethyl))]) (ring closure inferred) [SEQ ID NO 348]"
7,0.024 nM,"cyclo([Bip(4'-CONH2)][4Pal][Phe(4-COOH)]G[Pro(cis-4-F)][Trp(βS-Me,4-F)][Aib]SW[d(αMeS)][Ala(pyrimidin-5-yl)]Q[Dab]G[dPro(4R-(4-pyridylmethyl))]) (ring closure inferred) [SEQ ID NO 339]"
8,0.022 nM,"cyclo([Bip(4'-COOH)][4Pal][Phe(4-COOH)]G[Pro(cis-4-F)][Trp(βS-Me,4-F)][Aib]SW[d(αMeD)][aThr]Q[Dab][Sar][dPro(4R-(4-pyridylmethyl))]) (ring closure inferred) [SEQ ID NO 337]"
9,0.023 nM,"cyclo([Bip(4'-COOH)][4Pal][Phe(4-COOH)]G[Pro(cis-4-F)][Trp(βS-Me,4-F)][Aib][aThr]W[d(αMeS)][aThr]Q[Dab]G[dPro(4R-(4-pyridylmethyl))]) (ring closure inferred) [SEQ ID NO 352]"
10,0.016 nM,"cyclo([Phe(4-(5-CO2H-2-pyrimidyl))][4Pal][Phe(4-COOH)]G[Pro(cis-4-F)][Trp(βS-Me,4-F)][Aib]SW[d(αMeD)][Ala(4-THP)]Q[Dab]G[dPro(4R-(4-pyridylmethyl))]) (ring closure inferred) [SEQ ID NO 351]"
11,0.022 nM,"cyclo([Bip(4'-CONH2)][Ala(1-bicyclo(1.1.1)pentyl)][Phe(4-COOH)]G[Pro(cis-4-F)][Trp(βS-Me,4-F)][Aib]SW[d(αMeD)][Ala(pyrimidin-5-yl)]Q[Dab]G[dPro(4R-(4-pyridylmethyl))]) (ring closure inferred) [SEQ ID NO 342]"
12,0.013 nM,"cyclo([Bip(4'-COOH)][4Pal][Phe(2-Cl,4-COOH)]G[Pro(cis-4-F)][Trp(4-Cl)(βS-Me)][Aib]SW[d(αMeD)][aThr]Q[Dab]G[dPro(4R-(4-pyridylmethyl))]) (ring closure inferred) [SEQ ID NO 355]"
13,0.012 nM,"cyclo([Bip(4'-COOH)][4Pal][Phe(4-COOH)]G[Pro(cis-4-F)][Trp(βS-Me,4-F)][Aib]EW[Aib][4PyrimAla]Q[Dab]G[dPro(4R-Bzl(4-F))]) (ring closure inferred) [SEQ ID NO 345]"
14,0.026 nM,"cyclo([Bip][Ala(1-bicyclo(1.1.1)pentyl)][Phe(4-COOH)]G[Pro(cis-4-F)][Trp(βS-Me,4-F)][Aib]SW[d(αMeD)][Ala(pyrimidin-5-yl)]Q[Dab]G[dPro(4R-(4-pyridylmethyl))]) (ring closure inferred) [SEQ ID NO 343]"
15,0.018 nM,"cyclo([Bip4CONMe2][4Pal][Phe(4-COOH)]G[Pro(cis-4-F)][Trp(βS-Me,4-F)][Aib]SW[d(αMeS)][Ala(pyrimidin-5-yl)]Q[Dab]G[dPro(4R-(4-pyridylmethyl))]) (ring closure inferred) [SEQ ID NO 338]"
16,0.023 nM,"cyclo([TyrEtNAc][4Pal][Phe(4-COOH)]G[Pro(cis-4-F)][Trp(βS-Me,4-F)][Aib]EW[Aib]FQ[Dab]G[dPro(4R-(4-pyridylmethyl))]) (ring closure inferred) [SEQ ID NO 336]"
17,0.024 nM,"cyclo([Bip4CONMe2][Ala(1-bicyclo(1.1.1)pentyl)][Phe(4-COOH)]G[Pro(cis-4-F)][Trp(βS-Me,4-F)][Aib]SW[d(αMeD)][Ala(pyrimidin-5-yl)]Q[Dab]G[dPro(4R-(4-pyridylmethyl))]) (ring closure inferred) [SEQ ID NO 341]"
18,0.025 nM,"cyclo([Bip(4'-COOH)][4Pal][Phe(4-COOH)]G[Pro(cis-4-F)][Trp(βS-Me,4-F)][Aib]SW[d(αMeS)]LQ[Dab]G[dPro(4R-(4-pyridylmethyl))]) (ring closure inferred) [SEQ ID NO 347]"
19,0.017 nM,"cyclo([Bip(4'-COOH)][Ala(1-bicyclo(1.1.1)pentyl)][Phe(4-COOH)]G[Pro(cis-4-F)][Trp(βS-Me,4-F)][Aib]SW[d(αMeD)]LQ[Dab]G[dPro(4R-(4-pyridylmethyl))]) (ring closure inferred) [SEQ ID NO 349]"
20,0.021 nM,"cyclo([Bip][4Pal][Phe(4-COOH)]G[Pro(cis-4-F)][Trp(βS-Me,4-F)][Aib]SW[d(αMeS)][Ala(pyrimidin-5-yl)]Q[Dab]G[dPro(4R-(4-pyridylmethyl))]) (ring closure inferred) [SEQ ID NO 340]"

# Source: patent US20260242419A1, “A CYCLIC PEPTIDE FOR TRAPPING INTERLEUKIN-1 BETA” (Merck Sharp & Dohme LLC, priority 2023, published 2026)
